Experimental data as given in PMC11603075.

Biological target: KDM4E (human)

Substance: H2a(1–20)R3me2a (from UniProt P0C0S8 2-21) (peptide)
- KM of KDM4E catalysed demethylation, formaldehyde dehydrogenase (FDH) coupled assay: 5.18 µM

Substance: H3(1–21)R2me2a (from UniProt P68431 2-22) (peptide)
- KM of KDM4E catalysed demethylation, formaldehyde dehydrogenase (FDH) coupled assay: 20.7 µM
